B1: wild-type human interferon-λ3 (hIFN-λ3-WT), His-tagged (ligand)
chain: VPVARLRGALPDARGCHIAQFKSLSPQELQAFKRAKDALEESLLLKDCKCRSRLFPRTWDLRQLQVRERPVALEAELALTLKVLEATADTDPALGDVLDQPLHTLHHILSQLRACIQPQPTAGPRTRGRLHHWLHRLQEAPKKESPGCLEASVTFNLFRLLTRDLNCVASGDLCV
B2: recombinant ectodomain of human IFN-λ receptor 1 (hIFN-λR1) (receptor)
chain: RPRLAPPQNVTLLSQNFSVYLTWLPGLGNPQDVTYFVAYQSSPTRRRWREVEECAGTKELLCSMMCLKKQDLYNKFKGRVRTVSPSSKSPWVESEYLDYLFEVEPAPPVLVLTQTEEILSANATYQLPPCMPPLDLKYEVAFWKEGAGNKTLFPVTPHGQPVQITLQPAASEHHCLSARTIYTFSVPKYSKFSKPTCFLLEVPEANWA

Common to all, as to test: SPR
(In SPR one partner is held on a chip, and binding of the other changes the refractive index at the surface.)

The target of test [1] is B2.
Test [2] deals with B2.
Test [3] concerns the target designed human interferon-λ3 variant hIFN-λ3-DE1, His-tagged (human, UniProt Q8IZI9).

In general, koff refers to the rate constant with which the complex falls apart. A word on the Kd: it is a measure of binding affinity in units of concentration. Regarding B1, the koff in test [1] is 0.0183 s⁻¹. In addition, in test [2], the Kd amounted to 7.67 nM.

In test [3], B2 returned a dissociation constant (Kd) of 6.61 nM and a koff of 0.0244 s⁻¹.
